The target of data set [1] is T1, condensin hinge (Smc2/Smc4 hinge heterodimer) (Saccharomyces cerevisiae, UniProt P38989;Q12267 396-792;555-951).
T1 sequence 1: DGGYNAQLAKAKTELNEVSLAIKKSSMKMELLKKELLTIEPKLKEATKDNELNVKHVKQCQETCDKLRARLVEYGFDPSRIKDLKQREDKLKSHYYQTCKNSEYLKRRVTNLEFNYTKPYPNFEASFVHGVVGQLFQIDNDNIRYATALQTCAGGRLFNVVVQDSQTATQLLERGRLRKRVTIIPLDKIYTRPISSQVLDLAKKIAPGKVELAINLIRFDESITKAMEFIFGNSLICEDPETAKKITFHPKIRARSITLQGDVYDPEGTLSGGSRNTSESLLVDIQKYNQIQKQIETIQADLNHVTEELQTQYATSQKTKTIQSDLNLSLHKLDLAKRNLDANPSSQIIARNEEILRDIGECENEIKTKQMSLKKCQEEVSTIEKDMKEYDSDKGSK
T1 sequence 2: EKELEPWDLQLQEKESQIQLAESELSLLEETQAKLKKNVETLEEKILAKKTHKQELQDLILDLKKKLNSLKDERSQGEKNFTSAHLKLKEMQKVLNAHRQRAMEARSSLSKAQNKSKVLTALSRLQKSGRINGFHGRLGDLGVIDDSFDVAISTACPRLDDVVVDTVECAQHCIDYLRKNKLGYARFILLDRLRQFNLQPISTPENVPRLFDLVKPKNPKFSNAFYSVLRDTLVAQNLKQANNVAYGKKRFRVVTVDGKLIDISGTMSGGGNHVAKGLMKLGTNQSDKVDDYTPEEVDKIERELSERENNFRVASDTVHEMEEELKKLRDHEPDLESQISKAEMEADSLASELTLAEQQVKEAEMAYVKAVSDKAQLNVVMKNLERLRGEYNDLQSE
The experiment in a line: fluorescence polarization; 20 nM DNA; 5 mM MgCl2; EMSA: 50 mM Tris-HCl pH 7.5, 50 mM KCl, 125 mM NaCl, 5 mM MgCl2, 5% glycerol, 1 mM DTT, 10 min on ice, gel at 4 C; FP: 25 mM Tris-HCl pH 7.5, 100 mM NaCl, 5 mM. The settings on record: protein: recombinant; tags: N-terminal His6-TEV on Smc2; Smc4 untagged; copies: 1;1; label: 5' 6-FAM on strand 1; blunt. On the technique in general: Polarisation of emitted light reports the rotation of a fluorescent probe.

The target of data set [2] is T1, condensin hinge (Smc2/Smc4 hinge …). Nature of the data set: EMSA; 10 nM DNA; 5 mM MgCl2; Fig. 2c legend gives 0.2-0.3 uM and a 25 bp oligo; EMSA: 50 mM Tris-HCl pH 7.5, 50 mM KCl, 125 mM NaCl, 5 mM MgCl2, 5% glycerol, 1 mM DTT, 10 min on ice, gel at 4 C; FP: 25 mM Tris-HCl pH 7.5, 100 mM NaCl, 5 mM. The settings on record: protein: recombinant; tags: N-terminal His6-TEV on Smc2; Smc4 untagged; copies: 1;1; label: 5' 6-FAM on strand 1; blunt. For orientation: In EMSA bound probe runs differently from free probe, usually more slowly.

B1: 6-FAM 50-bp dsDNA (dsDNA)
DNA 1: GGATACGTAACAACGCTTATGCATCGCCGCCGCTACATCCCTGAGCTGAC
DNA 2: GTCAGCTCAGGGATGTAGCGGCGGCGATGCATAAGCGTTGTTACGTATCC
As a reminder, the Kd is the free concentration of one partner at which half of the binding sites on the other are occupied at equilibrium, for simple one-to-one binding. Regarding B1, the Kd was roughly 0.7 µM in data set [1] and roughly 0.141 µM in data set [2].

These data come from article doi:10.1101/2025.06.04.657969, “Complex rheology of condensin in entangled DNA”.
